The values that follow come from patent US20120316071A1 (published 2012).

Where a chain is given by its changes, count along the chain named. Names may count otherwise.

B1: Fab VH5-51_IGHD5-18*01>3_IGHJ4*01 G100K/G104T (H:KT) & V3-4_IGLJ1*01 S99A (Fab, V domains shown)
VH: EVQLVQSGAEVKKPGESLKISCKGSGYSFTSYWIGWVRQMPGKGLEWMGIIYPGDSDTRYSPSFQGQVTISADKSISTAYLQWSSLKASDTAMYYCARRKYSYTYDYFDYWGQGTLVTVSS
VL: QTVVTQEPSFSVSPGGTVTLTCGLSSGSVSTSYYPSWYQQTPGQAPRTLIYSTNTRSSGVPDRFSGSILGNKAALTITGAQADDESDYYCVLYMGSGIAYVFGTGTKVTVL
notes: Fab; CH1 (His6/Flag tags, plasmid A) and lambda CL (plasmid E) as for the parent
B2: Fab VH5-51_IGHD5-18*01>3_IGHJ4*01 G100K/G104T (H:KT) & V3-4_IGLJ1*01 V91A (Fab, V domains shown)
VH: B1 VH
VL: B1 VL with V91A, A99S
notes: as for B1
B3: Fab VH5-51_IGHD5-18*01>3_IGHJ4*01 G100K/G104T (H:KT) & V3-4_IGLJ1*01 Y93A (Fab, V domains shown)
VH: B1 VH
VL: B1 VL with Y93A, A99S
notes: as for B1
B4: Fab VH1-46_IGHD6-6*01_IGHJ1*01 S102A/S103P/S104F/H111F (APFF) & L6_IGKJ1*01 N93Y (Fab, V domains shown)
VH: QVQLVQSGAEVKKPGASVKVSCKASGYTFTSYYMHWVRQAPGQGLEWMGIINPSGGSTSYAQKFQGRVTMTRDTSTSTVYMELSSLRSEDTAVYYCAREEYAPFSAEYFQFWGQGTLVTVSS
VL: EIVLTQSPATLSLSPGERATLSCRASQSVSSYLAWYQQKPGQAPRLLIYDASNRATGIPARFSGSGSGTDFTLTISSLEPEDFAVYYCQQRSYWPPWTFGQGTKVEIKR
notes: Fab with CH1 plus His6/Flag tags and kappa CL from the expression plasmids; also called APFF & N93Y
B5: Fab VH1-46_IGHD6-6*01_IGHJ1*01 S102A/S103P/S104F/H111F (APFF) & L6_IGKJ1*01 N93S (Fab, V domains shown)
VH: B4 VH
VL: B4 VL with Y93S
notes: Fab with CH1 plus His6/Flag tags and kappa CL from the expression plasmids; also called APFF & N93S
B6: Fab VH1-46_IGHD6-6*01_IGHJ1*01 S102A/S103P/S104F/H111F (APFF) & L6_IGKJ1*01 N93Q (Fab, V domains shown)
VH: B4 VH
VL: B4 VL with Y93Q
notes: Fab with CH1 plus His6/Flag tags and kappa CL from the expression plasmids; also called APFF & N93Q
B7: Fab VH1-46_IGHD6-6*01_IGHJ1*01 S102A/S103P/S104F (APF) & L6_IGKJ1*01 R91Q (Fab, V domains shown)
VH: B4 VH with F111H
VL: B4 VL with R91Q, Y93N
notes: Fab with CH1 plus His6/Flag tags and kappa CL from the expression plasmids; also called APF & R91Q
B8: Fab VH1-46_IGHD6-6*01_IGHJ1*01 S102A/S103P/S104F (APF) & L6_IGKJ1*01 R91P (Fab, V domains shown)
VH: B4 VH with F111H
VL: B4 VL with R91P, Y93N
notes: Fab with CH1 plus His6/Flag tags and kappa CL from the expression plasmids; also called APF & R91P
B9: Fab VH1-46_IGHD6-6*01_IGHJ1*01 S102A/S103P/S104F (APF) & L6_IGKJ1*01 S92N (Fab, V domains shown)
VH: B4 VH with F111H
VL: B4 VL with S92N, Y93N
notes: Fab with CH1 plus His6/Flag tags and kappa CL from the expression plasmids; also called APF & S92N
B10: Fab VH1-46_IGHD6-6*01_IGHJ1*01 S102A/S103P/S104F/H111F (APFF) & L6_IGKJ1*01 N93H (Fab, V domains shown)
VH: B4 VH
VL: B4 VL with Y93H
notes: Fab with CH1 plus His6/Flag tags and kappa CL from the expression plasmids; also called APFF & N93H
B11: Fab VH1-46_IGHD6-6*01_IGHJ1*01 S103stop & L6_IGKJ1*01 (Fab, V domains shown)
VH: QVQLVQSGAEVKKPGASVKVSCKASGYTFTSYYMHWVRQAPGQGLEWMGIINPSGGSTSYAQKFQGRVTMTRDTSTSTVYMELSSLRSEDTAVYYCAREEYS
VL: not shown
notes: The heavy chain is therefore truncated in CDR3 and carries no CH1 or tags
B12: Fab VH1-46_IGHD6-6*01_IGHJ1*01 S102A & L6_IGKJ1*01 (Fab, V domains shown)
VH: B4 VH with P103S, F104S, F111H
VL: not shown
notes: Fab; heavy chain CDR3 NNK mutant of the parent; Constant parts as for the parent Fab
B13: Fab VH1-46_IGHD6-6*01_IGHJ1*01 S103H & L6_IGKJ1*01 (Fab, V domains shown)
VH: B4 VH with A102S, P103H, F104S, F111H
VL: not shown
notes: as for B12
B14: Fab VH1-46_IGHD6-6*01_IGHJ1*01 S103P & L6_IGKJ1*01 (Fab, V domains shown)
VH: B4 VH with A102S, F104S, F111H
VL: not shown
notes: as for B12
B15: Fab VH1-46_IGHD6-6*01_IGHJ1*01 S103C & L6_IGKJ1*01 (Fab, V domains shown)
VH: B4 VH with A102S, P103C, F104S, F111H
VL: not shown
notes: as for B12
B16: Fab VH1-46_IGHD6-6*01_IGHJ1*01 S102G & L6_IGKJ1*01 (Fab, V domains shown)
VH: B4 VH with A102G, P103S, F104S, F111H
VL: not shown
notes: as for B12
B17: Fab VH1-46_IGHD6-6*01_IGHJ1*01 S102I & L6_IGKJ1*01 (Fab, V domains shown)
VH: B4 VH with A102I, P103S, F104S, F111H
VL: not shown
notes: as for B12
B18: Fab VH1-46_IGHD6-6*01_IGHJ1*01 S102Q & L6_IGKJ1*01 (Fab, V domains shown)
VH: B4 VH with A102Q, P103S, F104S, F111H
VL: not shown
notes: Fab; heavy chain CDR3 NNK mutant of the parent; Constant parts as for the parent Fab (CH1 with His6/Flag tags, kappa CL)
B19: Fab VH1-46_IGHD6-6*01_IGHJ1*01 S102V & L6_IGKJ1*01 (Fab, V domains shown)
VH: B4 VH with A102V, P103S, F104S, F111H
VL: not shown
notes: as for B12
B20: Fab VH1-46_IGHD6-6*01_IGHJ1*01 S102A/S103P/S104F/H111F & L6_IGKJ1*01 (Fab, V domains shown)
VH: B4 VH
VL: not shown
notes: Fab expressed in E. coli: VH cloned into Plasmid A (CH1, His6 and Flag tags), kappa VL into Plasmid C (kappa CL); also called APFF; H:APFF & L:wt

The target in the first assay is T1, Recombinant Human DLL4 (R&D Systems Cat#1506-D4/CF) (human, UniProt Q9NR61 27-524).
T1 construct: also called delta-like protein 4; Delta-like 4
The assay is described as follows: ECL (MSD) multispot binding assay, immobilised recombinant human DLL4, Fab at 0.04 uM.
Regarding B1, the “ECL Signal/Noise” value is 41.

B2: the “ECL Signal/Noise” value was 48.5.

With B3, the “ECL Signal/Noise” value amounted to 21.3.

The target in the next assay is T2, Recombinant Human DLL4 (R&D Systems Cat#1506-D4/CF) (human, UniProt Q9NR61 27-524).
T2 construct: Bought protein (R&D Systems Cat#1506-D4/CF), immobilised on the MSD plate; also called delta-like protein 4; rHuman DLL4
The experiment in a line: ECL (MSD) multispot binding assay, DLL4 immobilised, Fab in solution.
On to B4, for which the “ECL signal” value is 1380.

As to B5, the “ECL signal” value was 6440.

With B6, the “ECL signal” value was 704.

Regarding B7, the “ECL signal” value amounted to 817 and the Signal/Blank is 3.1.

B8: the “ECL signal” value came out at 1280 and the Signal/Blank was found to be 4.7.

As for B9, the “ECL signal” value is 2090.

Regarding B10, the “ECL signal” value was 14700.

The next assay has as its target T3, Recombinant Human DLL4 (R&D Systems Cat#1506-D4/CF) (human, UniProt Q9NR61 27-524).
T3 construct: Bought recombinant protein; also called delta-like protein 4; rHuman DLL4
The experiment in a line: ECL 96-well plate assay; 0.004 uM Fab, plate coated with 15 ug/mL DLL4.
For B11, the Signal/Noise came to 1.1.

With B12, the Signal/Noise is 69.8.

Turning to B13, the Signal/Noise turned out to be 31.7.

On to B14, for which the Signal/Noise amounted to 82.4.

Consider B15, for which the Signal/Noise was determined as 27.4.

Take B16: the Signal/Noise stood at 5.2.

With B17, the Signal/Noise came to 34.5.

In the case of B18, the Signal/Noise was 31.9.

B19: the Signal/Noise turned out to be 36.5.

The next assay addresses T3, Recombinant Human DLL4 (R&D Systems …). The experiment in a line: ECL 96-well plate assay; 0.02 uM Fab, plate coated with 30 ug/mL DLL4.
As to B11, the Signal/Noise worked out at 0.8.

Turning to B12, the Signal/Noise stood at 51.7.

On to B13, for which the Signal/Noise was found to be 21.7.

For the molecule B14, the Signal/Noise is 59.7.

B15: the Signal/Noise worked out at 27.1.

B16: the Signal/Noise was determined as 5.1.

As for B17, the Signal/Noise was found to be 35.3.

Take B18: the Signal/Noise amounted to 40.6.

As to B19, the Signal/Noise stood at 35.9.

The next assay concerns the target T4, rHuman IGF-1 sR, CF (R&D Systems Cat#391-GR) (human, UniProt P08069 31-932).
T4 construct: Bought soluble receptor; also called insulin-like growth factor-1 soluble receptor
The experiment in a line: ECL multispot (MSD) assay, antigen spotted on plate, 10 nM Fab.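 Further: bound Fab detected with a TAG-labelled detection antibody (1 h, 20 °C), electrochemiluminescence read and compared with each well's blank, signal/blank of 4 or above scored as hit.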
In turn, B20 returned an ECL signal of 397.

The next assay deals with T5, rHuman EGF R/Fc Chimera, CF (R&D Systems Cat#344-ER) (human, UniProt P00533 25-645).
T5 construct: Bought recombinant Fc chimera; also called epidermal growth factor receptor; Fc part of the bought chimera not given
The assay is described as above.
B20 returned an ECL signal of 383.

A further assay deals with T6, rHuman HGF R/c-MET/Fc Chimera, CF (R&D Systems Cat#358-MT/CF) (human, UniProt P08581 25-932).
T6 construct: Bought recombinant Fc chimera; also called HGF R/Fc; hepatocyte growth factor receptor; Fc part of the bought chimera not given
T6 sequence (P08581 25-932, change not shown): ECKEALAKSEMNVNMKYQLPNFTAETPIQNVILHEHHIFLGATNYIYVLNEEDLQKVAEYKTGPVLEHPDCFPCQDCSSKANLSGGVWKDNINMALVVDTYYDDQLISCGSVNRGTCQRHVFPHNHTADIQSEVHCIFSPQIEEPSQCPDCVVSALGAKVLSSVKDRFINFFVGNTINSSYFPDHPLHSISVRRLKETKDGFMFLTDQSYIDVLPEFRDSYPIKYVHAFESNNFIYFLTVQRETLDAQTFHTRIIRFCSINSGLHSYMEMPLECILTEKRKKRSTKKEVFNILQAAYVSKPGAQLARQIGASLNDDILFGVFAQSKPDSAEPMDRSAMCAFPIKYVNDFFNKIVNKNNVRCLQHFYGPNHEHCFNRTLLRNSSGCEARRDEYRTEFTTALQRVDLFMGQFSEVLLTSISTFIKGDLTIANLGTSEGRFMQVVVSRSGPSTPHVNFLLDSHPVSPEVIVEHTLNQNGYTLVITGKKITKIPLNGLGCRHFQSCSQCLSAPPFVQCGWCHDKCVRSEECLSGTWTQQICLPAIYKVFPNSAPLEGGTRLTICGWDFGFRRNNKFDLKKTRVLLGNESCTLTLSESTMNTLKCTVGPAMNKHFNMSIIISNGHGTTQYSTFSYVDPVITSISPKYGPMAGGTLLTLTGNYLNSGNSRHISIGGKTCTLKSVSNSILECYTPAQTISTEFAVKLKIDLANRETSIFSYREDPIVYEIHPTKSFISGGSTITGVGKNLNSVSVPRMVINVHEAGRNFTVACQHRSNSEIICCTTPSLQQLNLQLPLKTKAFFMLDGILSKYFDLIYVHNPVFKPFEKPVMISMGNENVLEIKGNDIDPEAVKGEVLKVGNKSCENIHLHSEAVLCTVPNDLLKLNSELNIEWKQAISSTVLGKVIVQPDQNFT
The description is as above.
Consider B20, for which the ECL signal is 347.

The next assay deals with T7, Recombinant Human DLL4 (R&D Systems Cat#1506-D4/CF) (human, UniProt Q9NR61 27-524).
T7 construct: Bought recombinant protein; also called delta-like protein 4; rHuman DLL4
The assay is described as above.
B20: the ECL signal turned out to be 78400.

Another assay concerns the target T8, rHuman P-Cadherin/Fc Chimera, CF (R&D Systems Cat#861-PC) (human, UniProt P22223 108-654).
T8 construct: Bought recombinant Fc chimera; Fc part of the bought chimera not given
The description is as above.
As to B20, the ECL signal worked out at 347.

Another assay has as its target T9, rHuman ErbB2/Fc Chimera, CF (R&D Systems Cat#1129-ER) (human, UniProt P04626 23-652).
T9 construct: Bought recombinant Fc chimera; also called human epidermal growth factor 2 receptor; Fc part of the bought chimera not given
The description is as above.
On to B20, for which the ECL signal was 354.
